Laboratory results published in patent US20100015126A1, “Methods of Binding of Cross-Beta Structures By Chaperones” (priority 2006, published 2010).

Legend:
[1] = molecular target: T1, human mitochondrial HSP60 (Homo sapiens, UniProt P10809); assay: Competition ELISA: HSP60 binding under influence of ThT or Congo red; conditions: concentration series of compound
T1 construct: Dr. W. van Eden, Utrecht University; host or cells: E. coli

[2] = molecular target: T2, recombinant human HSP90beta (Homo sapiens, UniProt P08238); assay: ELISA: binding of HSP90 to immobilized (misfolded) protein ligands; conditions: 5 mM DTT in binding buffer
T2 construct: purchased Dr. S. Rüdiger, Cellular Protein Chemistry, Utrecht University
T2 sequence (P08238 whole entry): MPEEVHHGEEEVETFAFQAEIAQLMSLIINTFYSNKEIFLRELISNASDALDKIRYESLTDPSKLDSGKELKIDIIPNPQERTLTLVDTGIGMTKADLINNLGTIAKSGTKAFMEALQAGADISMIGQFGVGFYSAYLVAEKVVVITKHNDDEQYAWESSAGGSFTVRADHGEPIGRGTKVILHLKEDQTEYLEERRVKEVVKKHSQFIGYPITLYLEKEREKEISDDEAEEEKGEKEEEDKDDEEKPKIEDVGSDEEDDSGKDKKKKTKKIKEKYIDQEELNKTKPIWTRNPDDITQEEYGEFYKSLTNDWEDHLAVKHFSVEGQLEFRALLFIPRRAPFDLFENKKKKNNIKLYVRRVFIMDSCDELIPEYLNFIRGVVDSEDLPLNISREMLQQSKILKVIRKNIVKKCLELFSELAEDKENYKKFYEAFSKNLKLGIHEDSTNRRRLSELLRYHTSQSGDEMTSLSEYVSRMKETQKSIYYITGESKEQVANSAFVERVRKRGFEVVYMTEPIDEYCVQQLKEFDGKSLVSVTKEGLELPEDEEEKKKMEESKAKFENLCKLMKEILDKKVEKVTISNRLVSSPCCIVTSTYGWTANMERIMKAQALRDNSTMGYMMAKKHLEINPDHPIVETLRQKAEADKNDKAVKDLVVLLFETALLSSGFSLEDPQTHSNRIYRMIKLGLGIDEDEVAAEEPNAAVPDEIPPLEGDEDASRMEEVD
Method: Recombinant human HSP90beta was bought from Dr. S. Rüdiger (Cellular Protein Chemistry, Department of Chemistry, Faculty of Science, Utrecht University). HSP90beta eluted from an anion exchange column was supplied in 35 mM Bis-Tris/25mM Tris, 5 mM DTT, approximately 385 mM NaCl, approximately pH 9.0. The HSP90beta concentration was 5.0 μM (450 μg/ml with a MW of 90.000 Da; extinction coefficient of 53740 l/(mol*cm)). The supplied frozen stock is kept at −80° C. Before use, the stock is quickly thawed almost completely in a 37° C. water bath, and kept at wet ice. Before use, the HSP90beta solution is centrifuged for 5 minutes at 16,000*g at 4° C. During dilution of HSP90beta solution, 5 mM DTT should be incorporated in the dilution buffer, to keep free Cys residues. Thawed HSP90beta was aliquoted and snap frozen in liquid nitrogen before re-storage at −80° C.
Binding of chaperones to immobilized (misfolded) protein ligands was determined using an enzyme linked immuno sorbent assay (ELISA) approach. For this purpose 50 μl/well of potential ligands at indicated concentrations or coat buffer only for control and background measurement purposes, were coated overnight at 4° C. or coated for 1 h at room temperature, with motion, in 50 mM NaHCO3 pH 9.6 (coat buffer). In general, ligands were coated at 5 μg/ml, unless stated otherwise. For example, BiP binding peptides 6BB# and oxLDL were coated at 50 μg/ml. Native haemoglobin (Sigma-Aldrich, H7379), albumin, IgIV Gammagard and ovalbumin controls were prepared from lyophilized stocks. The controls were prepared by dissolving lyophilized proteins at 1 mg/ml in PBS upon resuspending by pipetting, followed by a 30 minutes period at the roller device, at room temperature. The protein solutions were centrifuged for 10 minutes at 16,000*g and diluted in coat buffer. After coating the plates were washed at least three times with 50 mM Tris-HCl pH 7.3, 150 mM NaCl, 0.1% v/v Tween20, and blocked with Blocking reagent (Roche Diagnostics, Almere, The Netherlands; 11112589001), for 1 h at room temperature, with motion. Plates were washed three times and incubated in triplicate with indicated chaperone dilution series, at 50 μl/well, for 1 h at room temperature, with constant motion. For HSP90, 5 mM DTT is incorporated in the binding buffer (PBS/0.1% Tween20) to avoid unwanted disulfide bond formation of the HSP90. Plates were washed three times and incubated with anti-FLAG antibody (mouse antibody, M2, peroxidase conjugate; Sigma, A-8592) for BiP-FLAG-His, anti-His-tag antibody (Mouse Monoclonal Antibody, Cat. No. 70796, Novagen [0.2 mg/ml]) for HSP60, a 1:1 mix of 500-fold diluted anti-HSP90beta antibodies (Stressgen, SPA-643 [mouse monoclonal IgM], SPA-646 [rabbit polyclonal]) for HSP90 and an anti-DnaK antibody (Stressgen, 023SPA-880D [mouse monoclonal antibody]) for DnaK. After four wash cycles, secondary antibodies were added to the wells when required, 50 μl/well, for 45′ at room temperature, with motion. RAMPO and SWARPO were used at 3000 times dilution. […] In a second experiment with more immobilized misfolded proteins and controls, the detection of bound HSP90 with the mix of two anti-HSP90 antibodies was achieved by mixing 1:1500 SWARPO with 1:3000 RAMPO. After 5 washes with wash buffer followed by two washes with PBS, binding of antibodies was assessed. […] Plates were read at 450 nm. Triplicates were averaged and standard deviations calculated. […]

human BiP = molecular target: T3, human BiP (Homo sapiens, UniProt P11021); assay: ELISA: binding of BiP in cell culture supernatant to immobilized misfolded proteins; conditions: undiluted supernatant of 293E cells overexpressing BiP; ligands coated at 5 μg/ml, Aβ 20 μg/ml
T3 construct: The human BiP gene except the signal peptide encoding region was obtained from Geneart (Germany); linker […]; made in house; host or cells: HEK 293E cells, transient transfection, PABC674 vector; secreted into the medium
T3 sequence (P11021 19-654): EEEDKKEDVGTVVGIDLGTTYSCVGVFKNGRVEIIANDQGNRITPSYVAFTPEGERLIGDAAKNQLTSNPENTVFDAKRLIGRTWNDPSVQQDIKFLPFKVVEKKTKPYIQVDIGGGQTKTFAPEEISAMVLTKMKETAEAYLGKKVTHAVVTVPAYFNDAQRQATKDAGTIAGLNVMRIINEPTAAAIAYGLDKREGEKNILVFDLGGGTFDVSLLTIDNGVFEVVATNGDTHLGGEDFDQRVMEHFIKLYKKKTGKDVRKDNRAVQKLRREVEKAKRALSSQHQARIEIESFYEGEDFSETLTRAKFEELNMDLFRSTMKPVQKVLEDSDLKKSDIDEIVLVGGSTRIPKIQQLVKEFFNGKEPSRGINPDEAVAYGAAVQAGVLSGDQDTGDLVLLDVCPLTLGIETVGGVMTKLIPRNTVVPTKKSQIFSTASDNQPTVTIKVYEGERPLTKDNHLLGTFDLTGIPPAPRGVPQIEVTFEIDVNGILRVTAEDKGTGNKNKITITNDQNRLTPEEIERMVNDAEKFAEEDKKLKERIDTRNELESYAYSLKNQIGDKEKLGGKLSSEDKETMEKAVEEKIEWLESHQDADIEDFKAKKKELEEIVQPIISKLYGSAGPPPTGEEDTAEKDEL
Method: Binding of BiP to Misfolded Proteins with Crossbeta Structure
Proteins at 5 μg/ml were coated for 1 h at room temperature with agitation, in Microlon high-binding ELISA plates (Greiner) in 50 mM NaHCO3 pH 9.6, except for Aβ that was coated at 20 μg/ml. Buffer was coated as negative control. A twofold dilutions series of cell culture supernatant of HEK 293E cells overexpressing BiP was also coated to the plate for anti-FLAG-tag antibody control purposes. Plates were washed and blocked with ½*Blocking reagent (Roche). Undiluted cell culture supernatant enriched with 0.1% Tween20 was added to the wells with immobilized protein ligands and incubated for 1 h at room temperature with agitation. Medium was discarded and the plate was washed with PBS with 0.1% v/v Tween20. Mouse monoclonal anti-FLAG-tag antibody (Sigma, A8592, anti-FLAG M2PO conjugate) was diluted 1000× in PBS/0.1% Tween20 and added to all wells, including those that are coated with cell culture supernatant. After a 1 h incubation at room temperature with agitation and after washing, wells were overlayed with 3000× diluted RAMPO (DAKOCytomation) in PBS/0.1% Tween20. After 30 minutes the plate was washed and bound peroxidase was visualised with tetramethylbenzidine (TMB, #45.103.20/#45.014.01, Biosource, Nivelles, Belgium). The reaction was stopped after 5 minutes with 10% H2SO4 in H2O. Plates were read at 450 nm.

T1 sequence (P10809 27-573): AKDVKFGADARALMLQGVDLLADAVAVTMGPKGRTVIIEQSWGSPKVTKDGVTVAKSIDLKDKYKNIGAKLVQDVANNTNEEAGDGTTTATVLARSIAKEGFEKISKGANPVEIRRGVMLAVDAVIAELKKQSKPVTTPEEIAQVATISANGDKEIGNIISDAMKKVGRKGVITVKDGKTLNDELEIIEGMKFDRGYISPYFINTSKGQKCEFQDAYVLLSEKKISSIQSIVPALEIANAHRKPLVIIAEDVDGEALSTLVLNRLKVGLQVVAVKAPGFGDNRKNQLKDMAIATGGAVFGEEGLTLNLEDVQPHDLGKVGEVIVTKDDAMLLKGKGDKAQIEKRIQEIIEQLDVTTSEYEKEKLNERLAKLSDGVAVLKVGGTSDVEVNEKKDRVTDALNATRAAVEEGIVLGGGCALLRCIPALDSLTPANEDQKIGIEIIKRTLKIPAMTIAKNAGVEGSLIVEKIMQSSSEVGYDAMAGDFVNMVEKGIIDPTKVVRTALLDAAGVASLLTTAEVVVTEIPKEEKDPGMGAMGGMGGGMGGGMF

Molecule	Binding of concentration series of HSP90 to coated ligand [2]	Binding of BiP to immobilized protein (ELISA) (human BiP)	further results
Nc1c(/N=N/c2ccc(-c3ccc(/N=N/c4cc(S(=O)(=O)O)c5ccccc5c4N)cc3)cc2)cc(S(=O)(=O)O)c2ccccc12 [Congo red]			Binding of HSP60 to Aβ42 under influence of compound ([1]; 10 or 30 μg/ml HSP60): inhibit; Binding of HSP60 to BSA-AGE under influence of compound ([1]; 10 or 30 μg/ml HSP60): inhibited
Cc1ccc2c(c1)sc(-c1ccc(N(C)C)cc1)[n+]2C.[Cl-] [ThT, Thioflavin T]			Binding of HSP60 to misfolded IgIV (dIgIV-86) under influence of compound ([1]; 10 μg/ml HSP60): stimulates; Binding of HSP60 to Aβ42 under influence of compound ([1]; 10 or 30 μg/ml HSP60): inhibit
AGEYYAAL [6BB7]	little binding		
BSA-AGE		binds	
GSNKGAIIGLM [6BB6, Human Aβ (25-35)]	has been established		
Hb: non-modified human haemoglobin control	did not bind		
HbAGE: human haemoglobin glycated with glucose-6-phosphate for 75 weeks	has been established	binds	
KLVFFAE [6BB12, Human Aβ16-22]	did not bind		
native BSA: non-modified bovine serum albumin control		not	
